Data published in the supplement of paper PMC10567573.

B1: SASS6 (parent)
chain: QKELQDVGQSLRIKEQEVCKLQEQ

Variants of: B1
Experiment: protein stability index of a GFP-peptide fusion (GPS, HEK-293T) (PSI 1-6); higher = more stable
Conditions: c terminus: a fixed tail appended
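Note: lentivirally expressed fusions sorted by FACS into six bins by GFP to DsRed ratio, PSI derived from sequencing read proportions per bin multiplied by bin number.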

First: QKELQDVGQSLRIKEQEVCKAQEQ [L21A]
Second: QKELQDVGQSLRIKEQEVCKEQEQ [L21E]
The protein stability index of the first is lower: 5.02 for the first, 5.78 for the second.

Going from QKELQDVGQSLRIKEQEVCKFQEQ [L21F] to QKELQDVGQSLRIKEQEVCKDQEQ [L21D], the protein stability index rises from 5.14 to 5.84.

Compared with QKELQDVGQSLRIKEQEVCKCQEQ [L21C], QKELQDVGQSLRIKRQEVCKLQEQ [E15R] is lower in protein stability index: 5.73 for the first, 4.21 for the second.

Compared with QKELQDVGQSLRIKMQEVCKLQEQ [E15M], QKELQDVGQSLRIKNQEVCKLQEQ [E15N] is lower in protein stability index: 4.54 for the first, 3.15 for the second.

Compared with QKELQDVGQSLRIKSQEVCKLQEQ [E15S], QKELQDVGQSLRIKPQEVCKLQEQ [E15P] is lower in protein stability index: 4.85 for the first, 4.66 for the second.

Going from QKELQDVGQSLRIKVQEVCKLQEQ [E15V] to QKELQDVGQSLRIKWQEVCKLQEQ [E15W], the protein stability index falls from 3.54 to 2.06.

First: QKELQDVGQSLRIKQQEVCKLQEQ [E15Q]
Second: QKELQDVGQSLRIKTQEVCKLQEQ [E15T]
The protein stability index of the first is higher: 4.66 for the first, 4.56 for the second.

First: QKELQDVGQSLRIKEQMVCKLQEQ [E17M]
Second: QKELQDVGQSLRIKEQKVCKLQEQ [E17K]
The protein stability index of the first is lower: 4.71 for the first, 5.25 for the second.

Going from QKELQDVGQSLRIKEQLVCKLQEQ [E17L] to QKELQDVGQSLRIKEQPVCKLQEQ [E17P], the protein stability index falls from 4.77 to 4.55.

First: QKELQDVGQSLRIKEQTVCKLQEQ [E17T]
Second: QKELQDVGQSLRIKEQSVCKLQEQ [E17S]
The protein stability index of the first is lower: 4.95 for the first, 4.97 for the second.

First: QKELQDVGQSLRIKEQNVCKLQEQ [E17N]
Second: QKELQDVGQSLRIKEQHVCKLQEQ [E17H]
The protein stability index of the first is lower: 4.33 for the first, 5.02 for the second.

Going from QKELQDVGQSLRIKEQDVCKLQEQ [E17D] to QKELQDVGQSLRIKEQRVCKLQEQ [E17R], the protein stability index falls from 5.55 to 4.54.

Going from QKELQDVGQSLRIKEQYVCKLQEQ [E17Y] to QKELQDVGQSLRIKEQGVCKLQEQ [E17G], the protein stability index rises from 4.22 to 4.96.

First: QKELQDVGQSLRIKEQCVCKLQEQ [E17C]
Second: QKELQDVGQSLRIKEQQVCKLQEQ [E17Q]
The protein stability index of the first is lower: 4.56 for the first, 4.62 for the second.

Compared with QKELQDVGQSLRIKEQIVCKLQEQ [E17I], QKELQDVGQSLRIKEQAVCKLQEQ [E17A] is higher in protein stability index: 4.28 for the first, 4.66 for the second.

First: QKELQDVGQSLRIKEQEDCKLQEQ [V18D]
Second: QKELQDVGQSLRIKEQETCKLQEQ [V18T]
The protein stability index of the first is higher: 5.94 for the first, 4.74 for the second.

First: QKELQDVGQSLRIKEQEGCKLQEQ [V18G]
Second: QKELQDVGQSLRIKEQEFCKLQEQ [V18F]
The protein stability index of the first is lower: 4.49 for the first, 4.5 for the second.

Compared with QKELQDVGQSLRIKEQEQCKLQEQ [V18Q], QKELQDVGQSLRIKEQENCKLQEQ [V18N] is lower in protein stability index: 5.54 for the first, 5.19 for the second.

Going from QKELQDVGQSLRIKEQEHCKLQEQ [V18H] to QKELQDVGQSLRIKEQEPCKLQEQ [V18P], the protein stability index falls from 5.11 to 3.51.

First: QKELQDVGQSLRIKEQERCKLQEQ [V18R]
Second: QKELQDVGQSLRIKEQELCKLQEQ [V18L]
The protein stability index of the first is higher: 5.62 for the first, 5.25 for the second.

Going from QKELQDVGQSLRIKEQEECKLQEQ [V18E] to QKELQDVGQSLRIKEQEACKLQEQ [V18A], the protein stability index falls from 5.95 to 4.16.

Compared with QKELQDVGQSLRIKEQEWCKLQEQ [V18W], QKELQDVGQSLRIKEQEICKLQEQ [V18I] is higher in protein stability index: 4.28 for the first, 4.75 for the second.

Going from QKELQDVGQSLRIKEQESCKLQEQ [V18S] to QKELQDVGQSLRIKEQEMCKLQEQ [V18M], the protein stability index rises from 5.35 to 5.46.

Going from QKELQDVGQSLRIKEQEYCKLQEQ [V18Y] to QKELQDVGQSLRIKEQEKCKLQEQ [V18K], the protein stability index rises from 5.03 to 5.32.

Compared with QKELQDVGQSLRIKEQEVCLLQEQ [K20L], QKELQDVGQSLRIKEQEVCTLQEQ [K20T] is higher in protein stability index: 5.02 for the first, 5.09 for the second.

Compared with QKELQDVGQSLRIKEQEVCRLQEQ [K20R], QKELQDVGQSLRIKEQEVCHLQEQ [K20H] is lower in protein stability index: 4.82 for the first, 4.49 for the second.

Going from QKELQDVGQSLRIKEQEVCYLQEQ [K20Y] to QKELQDVGQSLRIKEQEVCNLQEQ [K20N], the protein stability index rises from 4.66 to 5.12.

Going from QKELQDVGQSLRIKEQEVCCLQEQ [K20C] to QKELQDVGQSLRIKEQEVCGLQEQ [K20G], the protein stability index rises from 5.11 to 5.36.

Going from QKELQDVGQSLRIKEQEVCSLQEQ [K20S] to QKELQDVGQSLRIKEQEVCFLQEQ [K20F], the protein stability index falls from 5.55 to 4.31.

Going from QKELQDVGQSLRIKEQEVCPLQEQ [K20P] to QKELQDVGQSLRIKEQEVCMLQEQ [K20M], the protein stability index rises from 4.98 to 5.24.

Going from QKELQDVGQSLRIKEQEVCVLQEQ [K20V] to QKELQDVGQSLRIKEQEVCILQEQ [K20I], the protein stability index falls from 5.26 to 5.15.

First: QKELQDVGQSLRIKELEVCKLQEQ [Q16L]
Second: QKELQDVGQSLRIKEGEVCKLQEQ [Q16G]
The protein stability index of the first is lower: 4.71 for the first, 5.83 for the second.

Compared with QKELQDVGQSLRIKEEEVCKLQEQ [Q16E], QKELQDVGQSLRIKEYEVCKLQEQ [Q16Y] is lower in protein stability index: 5.63 for the first, 4.68 for the second.

Compared with QKELQDVGQSLRIKEMEVCKLQEQ [Q16M], QKELQDVGQSLRIKEKEVCKLQEQ [Q16K] is higher in protein stability index: 4.96 for the first, 5.48 for the second.

Compared with QKELQDVGQSLRIKEWEVCKLQEQ [Q16W], QKELQDVGQSLRIKEIEVCKLQEQ [Q16I] is higher in protein stability index: 4.66 for the first, 4.84 for the second.

Compared with QKELQDVGQSLRIKEAEVCKLQEQ [Q16A], QKELQDVGQSLRIKEHEVCKLQEQ [Q16H] is higher in protein stability index: 5.12 for the first, 5.13 for the second.

Going from QKELQDVGQSLRIKECEVCKLQEQ [Q16C] to QKELQDVGQSLRIKESEVCKLQEQ [Q16S], the protein stability index rises from 4.99 to 5.56.

Going from QKELQDVGQSLRIKETEVCKLQEQ [Q16T] to QKELQDVGQSLRIKEVEVCKLQEQ [Q16V], the protein stability index falls from 5.28 to 5.21.

Going from QKELQDVGQSLRIKENEVCKLQEQ [Q16N] to QKELQDVGQSLRIKEDEVCKLQEQ [Q16D], the protein stability index rises from 5.13 to 5.43.

First: QKELQDVGQSLRIKEQEVYKLQEQ [C19Y]
Second: QKELQDVGQSLRIKEQEVFKLQEQ [C19F]
The protein stability index of the first is lower: 5.19 for the first, 5.35 for the second.

First: QKELQDVGQSLRIKEQEVMKLQEQ [C19M]
Second: QKELQDVGQSLRIKEQEVWKLQEQ [C19W]
The protein stability index of the first is higher: 5.34 for the first, 4.59 for the second.

Compared with QKELQDVGQSLRIKEQEVKKLQEQ [C19K], QKELQDVGQSLRIKEQEVAKLQEQ [C19A] is lower in protein stability index: 4.88 for the first, 4.79 for the second.

Compared with QKELQDVGQSLRIKEQEVSKLQEQ [C19S], QKELQDVGQSLRIKEQEVRKLQEQ [C19R] is lower in protein stability index: 5.53 for the first, 5.23 for the second.

First: QKELQDVGQSLRIKEQEVIKLQEQ [C19I]
Second: QKELQDVGQSLRIKEQEVPKLQEQ [C19P]
The protein stability index of the first is lower: 4.35 for the first, 4.9 for the second.

Going from QKELQDVGQSLRIKEQEVDKLQEQ [C19D] to QKELQDVGQSLRIKEQEVVKLQEQ [C19V], the protein stability index falls from 5.56 to 5.25.

QKELQDVGQSLRIKEQEVHKLQEQ [C19H] and QKELQDVGQSLRIKEQEVQKLQEQ [C19Q] are the same in protein stability index: 5.61 for the first, 5.61 for the second.

First: QKELQDVGQSLRIKEQEVEKLQEQ [C19E]
Second: QKELQDVGQSLRIKEQEVTKLQEQ [C19T]
The protein stability index of the first is higher: 5.78 for the first, 5.31 for the second.
